# Assay results as given in article PMC8586334.
# How the values were obtained:
# [1] = target: S. cerevisiae replication protein A (RPA), wild type heterotrimer (Rfa1, Rfa2, Rfa3) (S. cerevisiae) (UniProt P22336)
# [2] = target: S. cerevisiae RPA-SSL heterotrimer (Rfa1-F11S, I14S, F15L; Rfa2; Rfa3) (S. cerevisiae) (UniProt P22336)
# S. cerevisiae RPA-SSL heterotrimer (Rfa1-F11S, I14S, F15L; Rfa2; Rfa3) (S. cerevisiae), sequence (P22336 whole entry F11S/I14S/F15L, chain 1 of 3): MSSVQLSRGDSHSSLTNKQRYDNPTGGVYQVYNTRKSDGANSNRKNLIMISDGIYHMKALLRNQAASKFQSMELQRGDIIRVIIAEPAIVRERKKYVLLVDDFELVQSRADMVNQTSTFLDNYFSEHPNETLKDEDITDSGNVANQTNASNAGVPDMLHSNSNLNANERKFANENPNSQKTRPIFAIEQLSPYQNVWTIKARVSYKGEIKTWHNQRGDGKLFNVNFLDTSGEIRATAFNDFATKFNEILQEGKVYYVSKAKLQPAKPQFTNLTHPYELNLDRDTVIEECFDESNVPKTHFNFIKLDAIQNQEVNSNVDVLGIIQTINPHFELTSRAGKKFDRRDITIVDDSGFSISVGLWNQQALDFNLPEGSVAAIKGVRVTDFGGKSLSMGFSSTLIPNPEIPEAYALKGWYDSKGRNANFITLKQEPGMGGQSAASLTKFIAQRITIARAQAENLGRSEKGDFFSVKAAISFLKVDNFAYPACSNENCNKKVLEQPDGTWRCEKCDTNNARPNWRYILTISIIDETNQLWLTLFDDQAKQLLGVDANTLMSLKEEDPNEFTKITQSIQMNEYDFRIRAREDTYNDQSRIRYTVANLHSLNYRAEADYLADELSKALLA
# S. cerevisiae RPA-SSL heterotrimer (Rfa1-F11S, I14S, F15L; Rfa2; Rfa3) (S. cerevisiae), sequence (P26754 whole entry, chain 2 of 3, further chain): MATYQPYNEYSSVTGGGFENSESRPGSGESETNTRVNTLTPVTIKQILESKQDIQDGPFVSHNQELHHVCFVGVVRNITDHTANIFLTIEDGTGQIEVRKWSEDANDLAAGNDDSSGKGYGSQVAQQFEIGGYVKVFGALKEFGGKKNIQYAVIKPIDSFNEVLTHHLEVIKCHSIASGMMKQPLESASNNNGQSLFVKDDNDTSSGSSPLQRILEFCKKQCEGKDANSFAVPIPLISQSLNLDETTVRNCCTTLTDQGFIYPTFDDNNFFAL
# S. cerevisiae RPA-SSL heterotrimer (Rfa1-F11S, I14S, F15L; Rfa2; Rfa3) (S. cerevisiae), sequence (P26755 whole entry, chain 3 of 3, further chain): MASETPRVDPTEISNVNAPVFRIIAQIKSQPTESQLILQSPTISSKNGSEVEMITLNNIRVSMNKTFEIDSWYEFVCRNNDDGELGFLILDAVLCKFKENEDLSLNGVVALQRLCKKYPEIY
# S. cerevisiae replication protein A (RPA), wild type heterotrimer (Rfa1, Rfa2, Rfa3) (S. cerevisiae), sequence (P22336 whole entry, chain 1 of 3): as the sequence (P22336 whole entry F11S/I14S/F15L, chain 1 of 3) above, with S11F, S14I, L15F counted along it
# S. cerevisiae replication protein A (RPA), wild type heterotrimer (Rfa1, Rfa2, Rfa3) (S. cerevisiae), sequence (P26754 whole entry, chain 2 of 3, further chain): as the sequence (P26754 whole entry, chain 2 of 3, further chain) above
# S. cerevisiae replication protein A (RPA), wild type heterotrimer (Rfa1, Rfa2, Rfa3) (S. cerevisiae), sequence (P26755 whole entry, chain 3 of 3, further chain): as the sequence (P26755 whole entry, chain 3 of 3, further chain) above
substance,measurement,setting,value
S. cerevisiae Dna2-E675A (nuclease-dead) (from UniProt P38859 1-1522) (enzyme),"ATPase activity (apparent kcat) of Dna2-E675A with ssDNA, stimulation by the RPA variant (48 nM)",[1],2 fold
same,"ATPase activity (apparent kcat) of Dna2-E675A with ssDNA, stimulation by the RPA variant (48 nM)",[2],2 fold
